Biological target: the molecule itself
Test: split reporter (BiFC, NanoBiT)

B1: WSN FluPol heterotrimer in cells infected with recombinant WSN viruses expressing PB1-Gluc1 and PB1-Gluc2 (complex)
chain 1: MDVNPTLLFLKVPAQNAISTTFPYTGDPPYSHGTGTGYTMDTVNRTHQYSERGRWTTNTETGAPQLNPIDGPLPEDNEPSGYAQTDCVLEAMAFLEESHPGIFETSCLETMEVVQQTRVDKLTQGRQTYDWTLNRNQPAATALANTIEVFRSNGLTANESGRLIDFLKDVMESMNKEEMEITTHFQRKRRVRDNMTKKMVTQRTIGKRKQRLNKRSYLIRALTLNTMTKDAERGKLKRRAIATPGMQIRGFVYFVETLARSICEKLEQSGLPVGGNEKKAKLANVVRKMMTNSQDTEISFTITGDNTKWNENQNPRMFLAMITYITRNQPEWFRNVLSIAPIMFSNKMARLGKGYMFESKSMKIRTQIPAEMLASIDLKYFNDSTRKKIEKIRPLLIDGTASLSPGMMMGMFNMLSTVLGVSILNLGQKRHTKTTYWWDGLQSSDDFALIVNAPNHEGIQAGVNRFYRTCKLLGINMSKKKSYINRTGTFEFTSFFYRYGFVANFSMELPSFGVSGINESADMSIGVTVIKNNMINNDLGPATAQMALQLFIKDYRYTYRCHRGDTQIQTRRSFEIKKLWEQTHSKAGLLVSDGGPNLYNIRNLHIPEVCLKWELMDEDYQGRLCNPLNPFVNHKDIESVNNAVIMPAHGPAKNMEYDAVATTHSWIPKRNRSILNTSQRGILEDEQMYQKCCNLFEKFFPSSSYRRPVGISSMVEAMVSRARIDARIDFESGRIKKEEFTEIMKICSTIEELRRQK
chain 2: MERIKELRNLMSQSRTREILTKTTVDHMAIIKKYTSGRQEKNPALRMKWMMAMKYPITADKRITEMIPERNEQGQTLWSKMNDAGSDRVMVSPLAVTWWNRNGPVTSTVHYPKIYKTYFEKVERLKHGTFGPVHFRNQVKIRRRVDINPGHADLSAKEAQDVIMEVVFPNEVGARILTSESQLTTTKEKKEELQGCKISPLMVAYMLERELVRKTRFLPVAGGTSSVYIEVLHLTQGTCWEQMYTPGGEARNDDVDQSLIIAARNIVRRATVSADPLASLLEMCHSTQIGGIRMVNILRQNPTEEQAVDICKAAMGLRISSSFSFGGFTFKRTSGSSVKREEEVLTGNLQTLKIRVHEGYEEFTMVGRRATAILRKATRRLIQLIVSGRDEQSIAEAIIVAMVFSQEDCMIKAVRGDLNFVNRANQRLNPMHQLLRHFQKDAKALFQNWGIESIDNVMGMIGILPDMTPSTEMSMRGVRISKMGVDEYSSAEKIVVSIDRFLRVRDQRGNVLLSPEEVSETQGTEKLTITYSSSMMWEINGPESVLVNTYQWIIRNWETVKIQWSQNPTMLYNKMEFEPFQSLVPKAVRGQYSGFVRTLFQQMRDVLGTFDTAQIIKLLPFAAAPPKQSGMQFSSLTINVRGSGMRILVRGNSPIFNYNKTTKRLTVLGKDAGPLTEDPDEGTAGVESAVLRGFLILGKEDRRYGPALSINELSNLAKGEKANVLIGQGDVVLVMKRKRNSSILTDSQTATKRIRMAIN
chain 3: […]
notes: copies: + +
- luciferase activity, fold over background: > 1000 fold over background

Reference: paper PMC6776259 (PLoS Pathogens, 2019)
